# Reference: article PMC10397247
# B1: GCN4-SR (peptide)
# chain: QLEDKVEELLRKNYHLENEVQQLKKLVG
# B2: 4H1615-AA (peptide)
# chain: DENAALKAEIAALKAEIAALKAKNAALEG
# B3: 4H1040-AA (peptide)
# chain: DENAALEAEIAALEAEIAALKAKNAALKG
# B4: Core_IIIN-es_EEEK (peptide)
# chain: DEIAALEAEIAALEAEIAALEAKNAALKG
# Experiments:
# [1] = molecular target: T1, GCN4-SR; test: two-hybrid library CCNG1;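 also: natural log of median RNA to DNA barcode read ratio; higher means stronger binding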
# T1 chain: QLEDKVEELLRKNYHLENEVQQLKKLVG
# [2] = molecular target: T1, GCN4-SR; test: two-hybrid library CCmax;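 also: natural log of median RNA to DNA barcode read ratio; higher means stronger binding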
# [3] = molecular target: T2, 4H1615-AA; test: two-hybrid library CCmax;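 also: natural log of median RNA to DNA barcode read ratio; higher means stronger binding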
# T2 chain: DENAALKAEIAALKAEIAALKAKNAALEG
# [4] = molecular target: T3, 4H1650-AA; test: two-hybrid library CCmax; settings: mean of both orientations;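 also: natural log of median RNA to DNA barcode read ratio; higher means stronger binding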
# T3 chain: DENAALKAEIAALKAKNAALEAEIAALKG
# [5] = molecular target: T4, 4H175-AA; test: two-hybrid library CCmax; settings: mean of both orientations;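 also: natural log of median RNA to DNA barcode read ratio; higher means stronger binding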
# T4 chain: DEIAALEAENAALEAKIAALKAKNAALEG
# [6] = molecular target: T5, 4H1765-AA; test: two-hybrid library CCmax; settings: mean of both orientations;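 also: natural log of median RNA to DNA barcode read ratio; higher means stronger binding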
# T5 chain: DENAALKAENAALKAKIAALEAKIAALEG
# [7] = molecular target: T6, 4H1821-AA; test: two-hybrid library CCmax; settings: mean of both orientations
# T6 chain: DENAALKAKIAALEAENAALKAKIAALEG
# [8] = molecular target: T7, 4H1828-AA; test: two-hybrid library CCmax; settings: mean of both orientations
# T7 chain: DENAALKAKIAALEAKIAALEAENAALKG
# [9] = molecular target: T8, 4H1930-AA; test: two-hybrid library CCmax; settings: mean of both orientations
# T8 chain: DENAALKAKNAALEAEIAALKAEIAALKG
# [10] = molecular target: T9, 4H2124-AA; test: two-hybrid library CCmax; settings: mean of both orientations
# T9 chain: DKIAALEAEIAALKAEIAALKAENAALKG
# [11] = molecular target: T10, 4H2165-AA; test: two-hybrid library CCmax; settings: mean of both orientations
# T10 chain: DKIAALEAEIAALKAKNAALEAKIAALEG
# [12] = molecular target: T11, 4H2253-AA; test: two-hybrid library CCmax
# T11 chain: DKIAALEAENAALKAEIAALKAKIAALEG
# [13] = molecular target: T12, 4H2330-AA; test: two-hybrid library CCmax; settings: mean of both orientations
# T12 chain: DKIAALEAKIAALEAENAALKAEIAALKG
# [14] = molecular target: T13, 4H2343-AA; test: two-hybrid library CCmax; settings: mean of both orientations
# T13 chain: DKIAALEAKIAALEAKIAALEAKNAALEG
# [15] = molecular target: T14, 4H2466-AA; test: two-hybrid library CCmax; settings: mean of both orientations
# T14 chain: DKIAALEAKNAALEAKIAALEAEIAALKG
# [16] = molecular target: T15, 4H249-AA; test: two-hybrid library CCmax; settings: mean of both orientations
# T15 chain: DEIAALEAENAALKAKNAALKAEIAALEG
# [17] = molecular target: T16, 4H2592-AA; test: two-hybrid library CCmax; settings: mean of both orientations
# T16 chain: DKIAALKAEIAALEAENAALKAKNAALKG
# [18] = molecular target: T17, 4H2732-AA; test: two-hybrid library CCmax; settings: mean of both orientations
# T17 chain: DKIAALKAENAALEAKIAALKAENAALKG
# [19] = molecular target: T18, 4H2774-AA; test: two-hybrid library CCmax; settings: mean of both orientations
# T18 chain: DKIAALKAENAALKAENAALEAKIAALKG
# [20] = molecular target: T19, 4H2931-AA; test: two-hybrid library CCmax; settings: mean of both orientations
# T19 chain: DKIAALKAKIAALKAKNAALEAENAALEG
# [21] = molecular target: T20, 4H3001-AA; test: two-hybrid library CCmax; settings: mean of both orientations
# T20 chain: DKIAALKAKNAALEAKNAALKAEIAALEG
# [22] = molecular target: T21, 4H3015-AA; test: two-hybrid library CCmax; settings: mean of both orientations
# T21 chain: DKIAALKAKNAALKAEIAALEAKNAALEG
# [23] = molecular target: T22, 4H3073-AA; test: two-hybrid library CCmax; settings: mean of both orientations
# T22 chain: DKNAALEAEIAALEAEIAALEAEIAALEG
# [24] = molecular target: T23, 4H3438-AA; test: two-hybrid library CCmax; settings: mean of both orientations
# T23 chain: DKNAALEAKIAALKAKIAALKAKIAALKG
# [25] = molecular target: T24, 4H347-AA; test: two-hybrid library CCmax; settings: mean of both orientations
# T24 chain: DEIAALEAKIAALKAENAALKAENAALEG
# [26] = molecular target: T25, 4H406-AA; test: two-hybrid library CCmax; settings: mean of both orientations
# T25 chain: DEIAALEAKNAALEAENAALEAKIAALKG
# [27] = molecular target: T26, 4H452-AA; test: two-hybrid library CCmax; settings: mean of both orientations
# T26 chain: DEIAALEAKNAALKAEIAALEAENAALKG
# [28] = molecular target: T27, 4H56-AA; test: two-hybrid library CCmax; settings: mean of both orientations
# T27 chain: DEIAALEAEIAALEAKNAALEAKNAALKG
# [29] = molecular target: T28, 4H_APH; test: two-hybrid library CCmax; settings: mean of both orientations
# T28 chain: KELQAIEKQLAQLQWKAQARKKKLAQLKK
# [30] = molecular target: T29, 4H_BCR; test: two-hybrid library CCmax; settings: mean of both orientations
# T29 chain: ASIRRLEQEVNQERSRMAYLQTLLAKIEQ
# [31] = molecular target: 4H_GCN4; test: two-hybrid library CCmax
# [32] = molecular target: GCN2_T; test: two-hybrid library CCmax; settings: mean of both orientations
# [33] = molecular target: T30, 4H1040-AA; test: two-hybrid library CCmax
# T30 chain: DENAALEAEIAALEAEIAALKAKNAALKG
# [34] = molecular target: T31, 4H1262-AA; test: two-hybrid library CCmax; settings: mean of both orientations
# T31 chain: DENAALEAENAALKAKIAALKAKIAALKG
# [35] = molecular target: T32, 4H133-AA; test: two-hybrid library CCmax; settings: mean of both orientations
# T32 chain: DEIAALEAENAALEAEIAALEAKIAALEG
# [36] = molecular target: T33, 4H1349-AA; test: two-hybrid library CCmax; settings: mean of both orientations
# T33 chain: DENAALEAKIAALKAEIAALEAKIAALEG
# [37] = molecular target: T34, 4H1384-AA; test: two-hybrid library CCmax; settings: mean of both orientations
# T34 chain: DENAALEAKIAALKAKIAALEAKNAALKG
# [38] = molecular target: T35, 4H1449-AA; test: two-hybrid library CCmax; settings: mean of both orientations
# T35 chain: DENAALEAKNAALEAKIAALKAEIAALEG
# [39] = molecular target: T36, 4H1593-AA; test: two-hybrid library CCmax; settings: mean of both orientations
# T36 chain: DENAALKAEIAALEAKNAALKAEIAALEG
# [40] = molecular target: T37, 4H1878-AA; test: two-hybrid library CCmax; settings: mean of both orientations
# T37 chain: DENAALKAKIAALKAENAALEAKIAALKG
# [41] = molecular target: T38, 4H235-AA; test: two-hybrid library CCmax; settings: mean of both orientations
# T38 chain: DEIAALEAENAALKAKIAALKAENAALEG
# [42] = molecular target: T39, 4H2580-AA; test: two-hybrid library CCmax; settings: mean of both orientations
# T39 chain: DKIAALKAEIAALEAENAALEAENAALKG
# [43] = molecular target: T40, 4H2604-AA; test: two-hybrid library CCmax; settings: mean of both orientations
# T40 chain: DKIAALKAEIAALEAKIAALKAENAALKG
# [44] = molecular target: T41, 4H2621-AA; test: two-hybrid library CCmax; settings: mean of both orientations
# T41 chain: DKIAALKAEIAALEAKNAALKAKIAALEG
# [45] = molecular target: T42, 4H2760-AA; test: two-hybrid library CCmax; settings: mean of both orientations
# T42 chain: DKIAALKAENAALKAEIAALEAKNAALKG
# [46] = molecular target: T43, 4H2903-AA; test: two-hybrid library CCmax; settings: mean of both orientations
# T43 chain: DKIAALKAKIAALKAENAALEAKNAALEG
# [47] = molecular target: T44, 4H2947-AA; test: two-hybrid library CCmax; settings: mean of both orientations
# T44 chain: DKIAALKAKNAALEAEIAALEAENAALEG
# [48] = molecular target: T45, 4H2961-AA; test: two-hybrid library CCmax; settings: mean of both orientations
# T45 chain: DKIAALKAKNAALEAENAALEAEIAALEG
# [49] = molecular target: T46, 4H3049-AA; test: two-hybrid library CCmax; settings: mean of both orientations
# T46 chain: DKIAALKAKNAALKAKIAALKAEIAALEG
# [50] = molecular target: T47, 4H3094-AA; test: two-hybrid library CCmax; settings: mean of both orientations
# T47 chain: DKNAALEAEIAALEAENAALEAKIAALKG
# [51] = molecular target: T48, 4H324-AA; test: two-hybrid library CCmax; settings: mean of both orientations
# T48 chain: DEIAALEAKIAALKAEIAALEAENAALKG
# [52] = molecular target: T49, 4H341-AA; test: two-hybrid library CCmax; settings: mean of both orientations
# T49 chain: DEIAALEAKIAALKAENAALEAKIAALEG
# [53] = molecular target: T50, 4H3449-AA; test: two-hybrid library CCmax; settings: mean of both orientations
# T50 chain: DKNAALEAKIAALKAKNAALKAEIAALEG
# [54] = molecular target: T51, 4H3619-AA; test: two-hybrid library CCmax; settings: mean of both orientations
# T51 chain: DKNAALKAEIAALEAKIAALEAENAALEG
# [55] = molecular target: T52, 4H3629-AA; test: two-hybrid library CCmax; settings: mean of both orientations
# T52 chain: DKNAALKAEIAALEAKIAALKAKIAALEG
# [56] = molecular target: T53, 4H3777-AA; test: two-hybrid library CCmax; settings: mean of both orientations
# T53 chain: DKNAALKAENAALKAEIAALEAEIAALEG
# [57] = molecular target: T54, 4H380-AA; test: two-hybrid library CCmax; settings: mean of both orientations
# T54 chain: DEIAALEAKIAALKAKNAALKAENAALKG
# [58] = molecular target: T55, 4H3915-AA; test: two-hybrid library CCmax; settings: mean of both orientations
# T55 chain: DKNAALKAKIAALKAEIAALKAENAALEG
# [59] = molecular target: T56, 4H3974-AA; test: two-hybrid library CCmax; settings: mean of both orientations
# T56 chain: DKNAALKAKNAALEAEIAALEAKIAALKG
# [60] = molecular target: T57, 4H432-AA; test: two-hybrid library CCmax; settings: mean of both orientations
# T57 chain: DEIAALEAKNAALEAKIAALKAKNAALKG
# [61] = molecular target: T58, 4H446-AA; test: two-hybrid library CCmax; settings: mean of both orientations
# T58 chain: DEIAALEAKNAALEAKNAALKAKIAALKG
# [62] = molecular target: T59, 4H63-AA; test: two-hybrid library CCmax; settings: mean of both orientations
# T59 chain: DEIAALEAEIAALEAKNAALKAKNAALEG
# [63] = molecular target: T60, Core_IIIN-es_KKKE; test: two-hybrid library CCmax; settings: mean of both orientations
# T60 chain: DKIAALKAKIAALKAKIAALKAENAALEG
# 4H_GCN4, sequence (chain, as listed by the source): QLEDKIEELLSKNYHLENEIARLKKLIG
binder,measurement,setting,value
B1,interaction score,[1],-2.35
same,interaction score,[2],-1.35
B2,interaction score,[3],1.78
same,interaction score,[4],-1.46
same,interaction score,[5],-1.43
same,interaction score,[6],-1.45
same,interaction score,[7],-1.23
same,interaction score,[8],-1.78
same,interaction score,[9],-1.07
same,interaction score,[10],-1.09
same,interaction score,[11],-1.55
same,interaction score,[12],-1.57
same,interaction score,[13],-1.4
same,interaction score,[14],-0.958
same,interaction score,[15],-1.57
same,interaction score,[16],-2.1
same,interaction score,[17],-1.27
same,interaction score,[18],-1.79
same,interaction score,[19],-1.47
same,interaction score,[20],-1.79
same,interaction score,[21],-1.81
same,interaction score,[22],-1.68
same,interaction score,[23],-0.406
same,interaction score,[24],-0.739
same,interaction score,[25],-1.38
same,interaction score,[26],-1.66
same,interaction score,[27],-1.96
same,interaction score,[28],-1.15
same,interaction score,[29],-1.58
same,interaction score,[30],-1.79
same,interaction score,[31],-1.57
same,interaction score,[32],-1.38
B3,interaction score,[33],0.802
same,interaction score,[34],1.1
same,interaction score,[35],-1.47
same,interaction score,[36],0.263
same,interaction score,[37],0.28
same,interaction score,[38],0.618
same,interaction score,[39],-1.27
same,interaction score,[40],-0.752
same,interaction score,[41],-1.14
same,interaction score,[16],-0.999
same,interaction score,[42],1.19
same,interaction score,[43],0.338
same,interaction score,[44],-0.66
same,interaction score,[45],-1.46
same,interaction score,[19],-0.661
same,interaction score,[46],1.05
same,interaction score,[47],-1.06
same,interaction score,[48],-1.24
same,interaction score,[49],1.34
same,interaction score,[50],-1.03
same,interaction score,[51],1.68
same,interaction score,[52],-0.876
same,interaction score,[53],-0.935
same,interaction score,[54],0.716
same,interaction score,[55],1.28
same,interaction score,[56],-0.948
same,interaction score,[57],0.307
same,interaction score,[58],2.34
same,interaction score,[59],0.222
same,interaction score,[60],-1.63
same,interaction score,[61],-1.4
same,interaction score,[62],-1.26
B4,interaction score,[63],2.19
